One block for each binder: values may come before it.
What was measured:
mCRP (31-60) peptide = molecular target: T1, mCRP (31-60) peptide (human); assay: solid phase peptide ELISA (part 2)
T1 peptide: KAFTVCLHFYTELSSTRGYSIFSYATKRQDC

mCRP (61-90) peptide = molecular target: T2, mCRP (61-90) peptide (human); assay: solid phase peptide ELISA (part 2)
T2 peptide: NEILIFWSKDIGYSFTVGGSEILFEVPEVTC

mCRP (121-150) peptide = molecular target: T3, mCRP (121-150) peptide (human); assay: solid phase peptide ELISA (part 2)
T3 peptide: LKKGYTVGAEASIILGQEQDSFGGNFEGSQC

mCRP (151-180) peptide = molecular target: T4, mCRP (151-180) peptide (human); assay: solid phase peptide ELISA (part 2)
T4 peptide: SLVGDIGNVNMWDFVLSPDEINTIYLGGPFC

mCRP (181-206) peptide = molecular target: T5, mCRP (181-206) peptide (human); assay: solid phase peptide ELISA (part 2)
T5 peptide: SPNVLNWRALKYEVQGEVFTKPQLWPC

mCRP (19) peptide = molecular target: T6, mCRP (19) peptide (human); assay: solid phase peptide ELISA, antibody 1 ug/mL
T6 peptide: QTDMSRKAFVC
Protocol: (§1) Epitope analysis was performed by the following procedure. [0200] (a) Peptides were immobilized on a plate by standing at 50 ng/well (50 μL/well) for 16 hours at 4° C. […] (b) Solid phase peptides were washed twice with Dulbecco's PBS (D-PBS) (200 μL/well). […] (c) Blocking was performed by adding 200 μL of D-PBS containing 0.1% BSA and 0.05% NaN₃ to each well and leaving it at 4° C. overnight. […] (d) Each well was washed twice with the washing buffer. [0204] (e) The antibody was diluted to 1 μg/mL with the dilution buffer and the diluted solution was added to each well (50 μL/well) and left at 37° C. for 30 minutes. […] (f) Each well was washed four or more times with the washing buffer. […] (g) Anti-mouse IgG (γ-specific)-HRP, a labeled antibody, was added to each well (50 μL/well) and left at 37° C. for 30 minutes. [0207] (h) Each well was washed four or more times with the washing buffer. […] (i) A chromogenic reaction was started by adding a substrate solution (400 μg/mL) to each well (100 μL/well), and the reaction was allowed to proceed for 15 minutes at room temperature in the dark. [0209] (j) After 15 minutes, the reaction was stopped by addition of 1 mol/L sulfuric acid (100 μL/well), and absorbance (490 nm) was measured.
(§2) In the above (e), the same result was obtained even when the antibody concentration added to each well was changed to 5 μg/mL. […] Accordingly, it is believed that there are not only one kind of epitope but also a plurality of kinds of epitopes of human denatured CRP-specific monoclonal antibodies.

mCRP (29) peptide = molecular target: T7, mCRP (29) peptide (human); assay: solid phase peptide ELISA, antibody 1 ug/mL
T7 peptide: FPKESDTSYVC
Protocol: as §1, §2

mCRP (39) peptide = molecular target: T8, mCRP (39) peptide (human); assay: solid phase peptide ELISA, antibody 1 ug/mL
T8 peptide: SLKAPLTKPLC
Protocol: as §1, §2

mCRP (49) peptide = molecular target: T9, mCRP (49) peptide (human); assay: solid phase peptide ELISA, antibody 1 ug/mL
T9 peptide: KAFTVCLHFYC
Protocol: as §1, §2

mCRP (59) peptide = molecular target: T10, mCRP (59) peptide (human); assay: solid phase peptide ELISA, antibody 1 ug/mL
T10 peptide: TELSSTRGYSC
Protocol: as §1, §2

mCRP (69) peptide = molecular target: T11, mCRP (69) peptide (human); assay: solid phase peptide ELISA, antibody 1 ug/mL
T11 peptide: IFSYATKRQDC
Protocol: as §1, §2

mCRP (79) peptide = molecular target: T12, mCRP (79) peptide (human); assay: solid phase peptide ELISA, antibody 1 ug/mL
T12 peptide: NEILIFWSKDC
Protocol: as §1, §2

mCRP (89) peptide = molecular target: T13, mCRP (89) peptide (human); assay: solid phase peptide ELISA, antibody 1 ug/mL
T13 peptide: IGYSFTVGGSC
Protocol: as §1, §2

mCRP (99) peptide [1] = molecular target: T14, mCRP (99) peptide (human); assay: solid phase peptide ELISA, antibody 1 ug/mL
T14 peptide: EILFEVPEVTC
Protocol: as §1, §2

mCRP (109) peptide = molecular target: T15, mCRP (109) peptide (human); assay: solid phase peptide ELISA, antibody 1 ug/mL
T15 peptide: VAPVHICTSWC
Protocol: as §1, §2

mCRP (119) peptide = molecular target: T16, mCRP (119) peptide (human); assay: solid phase peptide ELISA, antibody 1 ug/mL
T16 peptide: ESASGIVEFWC
Protocol: as §1, §2

mCRP (129) peptide = molecular target: T17, mCRP (129) peptide (human); assay: solid phase peptide ELISA, antibody 1 ug/mL
T17 peptide: VDGKPRVRKSC
Protocol: as §1, §2

mCRP (139) peptide = molecular target: T18, mCRP (139) peptide (human); assay: solid phase peptide ELISA, antibody 1 ug/mL
T18 peptide: LKKGYTVGAEC
Protocol: as §1, §2

mCRP (149) peptide = molecular target: T19, mCRP (149) peptide (human); assay: solid phase peptide ELISA, antibody 1 ug/mL
T19 peptide: ASIILGQEQDC
Protocol: as §1, §2

mCRP (159) peptide = molecular target: T20, mCRP (159) peptide (human); assay: solid phase peptide ELISA, antibody 1 ug/mL
T20 peptide: SFGGNFEGSQC
Protocol: as §1, §2

mCRP (169) peptide = molecular target: T21, mCRP (169) peptide (human); assay: solid phase peptide ELISA, antibody 1 ug/mL
T21 peptide: SLVGDIGNVNC
Protocol: as §1, §2

mCRP (179) peptide = molecular target: T22, mCRP (179) peptide (human); assay: solid phase peptide ELISA, antibody 1 ug/mL
T22 peptide: MWDFVLSPDEC
Protocol: as §1, §2

mCRP (189) peptide = molecular target: T23, mCRP (189) peptide (human); assay: solid phase peptide ELISA, antibody 1 ug/mL
T23 peptide: INTIYLGGPFC
Protocol: as §1, §2

mCRP (199) peptide = molecular target: T24, mCRP (199) peptide (human); assay: solid phase peptide ELISA, antibody 1 ug/mL
T24 peptide: SPNVLNWRALC
Protocol: as §1, §2

mCRP (209) peptide = molecular target: T25, mCRP (209) peptide (human); assay: solid phase peptide ELISA, antibody 1 ug/mL
T25 peptide: KYEVQGEVFTKPQLWPC
Protocol: as §1, §2

mCRP (99) peptide [2] = molecular target: T14, mCRP (99) peptide; assay: solid phase peptide ELISA
Protocol: as §1
In the above (e), the same result was obtained even when the antibody concentration added to each well was changed to 5 μg/mL. […]

Absorbance (490 nm) (mCRP (31-60) peptide): 0.03 A490
Absorbance (490 nm) (mCRP (61-90) peptide): 1.98 A490
Absorbance (490 nm) (mCRP (121-150) peptide): 0.017 A490
Absorbance (490 nm) (mCRP (151-180) peptide): 0.108 A490
Absorbance (490 nm) (mCRP (181-206) peptide): 0.006 A490
Absorbance (490 nm) (mCRP (19) peptide): 0.004 A490
Absorbance (490 nm) (mCRP (29) peptide): -0.001 A490
Absorbance (490 nm) (mCRP (39) peptide): 0.001 A490
Absorbance (490 nm) (mCRP (49) peptide): 0 A490
Absorbance (490 nm) (mCRP (59) peptide): 0.001 A490
Absorbance (490 nm) (mCRP (69) peptide): 0.002 A490
Absorbance (490 nm) (mCRP (79) peptide): 0 A490
Absorbance (490 nm) (mCRP (89) peptide): 0 A490
Absorbance (490 nm) (mCRP (99) peptide [1]): 1.58 A490
Absorbance (490 nm) (mCRP (109) peptide): -0.001 A490
Absorbance (490 nm) (mCRP (119) peptide): 0.005 A490
Absorbance (490 nm) (mCRP (129) peptide): 0.002 A490
Absorbance (490 nm) (mCRP (139) peptide): 0.002 A490
Absorbance (490 nm) (mCRP (149) peptide): 0.001 A490
Absorbance (490 nm) (mCRP (159) peptide): 0.002 A490
Absorbance (490 nm) (mCRP (169) peptide): 0.001 A490
Absorbance (490 nm) (mCRP (179) peptide): 0.003 A490
Absorbance (490 nm) (mCRP (189) peptide): 0.007 A490
Absorbance (490 nm) (mCRP (199) peptide): 0.006 A490
Absorbance (490 nm) (mCRP (209) peptide): 0 A490
B1: human denatured CRP-specific antibody produced from hybridoma mCRP-3C (antibody, mouse IgG2b, V domains shown)
VH: QVQLQQSGAELVRPGASVKLSCKALDYTFTDYEMHWVKQTPVHGLEWIGAIHPGRGGTAYNQKFKGKATLTADKSSSTAYMELSSLTSEDSGVYYCTSYHGGYWGQGTTLTVSS
VL: DVVMTQTPLSLPVSLGDQASISCRSSQSLVHSNENTYLLWYLQKPGQSPKLLIYKVSNRFSGVPDRFSGSGSGTDFTLKISRVEAEDLGVYFCSQTTHVPWTFGGGTKLEIKR
notes: Mouse IgG2b, kappa; also called 3C antibody

binding result (mCRP (99) peptide [2]): no binding
B2: human denatured CRP-specific antibody produced from hybridoma mCRP-12C (antibody, mouse IgG1, V domains shown)
VH: EVQLQQSGAELVKPGASVKLSCTASGFNIKDYYIHWVKQRTDQGLEWIGRIDPEDDETKYAPKFQGKATIITDTSSNTAYLHLSSLTSADTAVYYCASRIYYYDIKGLFDYWGQGTTLTVSS
VL: DIVMTQAPSSLTVTAGEKVTMTCKSSQSLLNSGNQKNYLTWSQQKPGQPPKLLIYWASTRESGVPDRFTGSGSGTDFTLTISSVQAEDLAVYYCQNDYNYPITFGAGTKLELKR
notes: Mouse IgG1, kappa; also called 12C antibody

binding result (mCRP (99) peptide [2]): no binding
B3: human denatured CRP-specific antibody produced from hybridoma mCRP-18A (antibody, mouse IgG2a)
heavy: EVQLQQSGAEFVKPGTSVKLSCTASGFNIKDYYIHWVKQRTEQGLEWIGRIDPEDGETKYAPKFQGKATITADASSNTAYLQLSSLTSEDTAVYYCVSRMYYYGSQGLFDFWGQGTTLTVSSAKTTAPSVYPLAPVCGGTTGSSVTLGCLVKGYFPEPVTLTWNSGSLSSGVHTFPALLQSGLYTLSSSVTVTSNTWPSQTITCNVAHPASSTKVDKKIEPRVPITQNPCPPLKECPPCAAPDLLGGPSVFIFPPKIKDVLMISLSPMVTCVVVDVSEDDPDVQISWFVNNVEVHTAQTQTHREDYNSTLRVVSALPIQHQDWMSGKEFKCKVNNRALPSPIEKTISKPRGPVRAPQVYVLPPPAEEMTKKEFSLTCMITGFLPAEIAVDWTSNGRTEQNYKNTATVLDSDGSYFMYSKLRVQKSTWERGSLFACSVVHEGLHNHLTTKTISHSPGK
light: DIVMTQSPSSLTVTAGEKVTMGCKSSQSLLNSANQKNYLTWYRQKPGQPPKLLIYWASTRESGVPDRFTGSGSGTDFTLTISSVQAEDLAVYYCQNDYNYPLTCGAGTKLDLKRADAAPTVSIFPPSSEQLTSGGASVVCFLNNFYPKDINVKWKIDGSERQNGVLNSWTDQDSKDSTYSMSSTLTLTKDEYERHNSYTCEATHKTSTSPIVKSFNRNEC
notes: Mouse IgG2a, kappa; also called 18A antibody

Source: US20230384326A1 (CANON MEDICAL SYSTEMS, published 2023)
